Measured values published in the supplement of paper PMC11316812.
± gives the standard deviation of the averaged measurements.

Columns and labels:
MCF7 = assay: percentage of EdU-negative (G0-arrested) nuclei per well, 72 h; higher = more G0 arrest; settings: reference: sequence is the full UniProt precursor, the tested protein was the secreted form or ectodomain
hTERT-HMEC = assay: as above; settings: reference: sequence is the full UniProt precursor, the tested protein was the secreted form or ectodomain
[1] = protein concentration 0.0225 µM
[2] = protein concentration 0.00875 µM
[3] = protein concentration 0.0875 µM
[4] = protein concentration 0.02075 µM
[5] = protein concentration 0.2075 µM
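Note: secreted proteins added to cultured cells, EdU pulse at the end, nuclei found by Hoechst imaging, EdU status from nuclear versus surrounding ring intensity ratio, PBS as neutral control.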

Sequence	percentage of EdU-negative (MCF7; [1]) [%]	percentage of EdU-negative (MCF7; protein concentration 0.225 µM) [%]	percentage of EdU-negative (hTERT-HMEC; [1]) [%]	percentage of EdU-negative (hTERT-HMEC; protein concentration 0.225 µM) [%]	also measured
MAFAWWPCLILALLSSLAASGFPRSPFRLLGKRSLPEGVANGIEVYSTKINSKVTSRFAHNVVTMRAVNRADTAKEVSFDVELPKTAFITNFTLTIDGVTYPGNVKEKEVAKKQYEKAVSQGKTAGLVKASGRKLEKFTVSVNVAAGSKVTFELTYEELLKRHKGKYEMYLKVQPKQLVKHFEIEVDIFEPQGISMLDAEASFITNDLLGSALTKSFSGKKGHVSFKPSLDQQRSCPTCTDSLLNGDFTITYDVNRESPGNVQIVNGYFVHFFAPQGLPVVPKNVAFVIDISGSMAGRKLEQTKEALLRILEDMQEEDYLNFILFSGDVSTWKEHLVQATPENLQEARTFVKSMEDKGMTNINDGLLRGISMLNKAREEHRIPERSTSIVIMLTDGDANVGESRPEKIQENVRNAIGGKFPLYNLGFGNNLNYNFLENMALENHGFARRIYEDSDADLQLQGFYEEVANPLLTGVEMEYPENAILDLTQNTYQHFYDGSEIVVAGRLVDEDMNSFKADVKGHGATNDLTFTEEVDMKEMEKALQERDYIFGNYIERLWAYLTIEQLLEKRKNAHGEEKENLTARALDLSLKYHFVTPLTSMVVTKPEDNEDERAIADKPGEDAEATPVSPAMSYLTSYQPPQNPYYYVDGDPHFIIQIPEKDDALCFNIDEAPGTVLRLIQDAVTGLTVNGQITGDKRGSPDSKTRKTYFGKLGIANAQMDFQVEVTTEKITLWNRAVPSTFSWLDTVTVTQDGLSMMINRKNMVVSFGDGVTFVVVLHQVWKKHPVHRDFLGFYVVDSHRMSAQTHGLLGQFFQPFDFKVSDIRPGSDPTKPDATLVVKNHQLIVTRGSQKDYRKDASIGTKVVCWFVHNNGEGLIDGVHTDYIVPNLF	26.1 ± 2.2	27.2 ± 3.3	4.75 ± 1	6.22 ± 0.29	–
MTLILTSLLFFGLSLGPRTRVQAENLLKPILWAEPGPVITWHNPVTIWCQGTLEAQGYRLDKEGNSMSRHILKTLESENKVKLSIPSMMWEHAGRYHCYYQSPAGWSEPSDPLELVVTAYSRPTLSALPSPVVTSGVNVTLRCASRLGLGRFTLIEEGDHRLSWTLNSHQHNHGKFQALFPMGPLTFSNRGTFRCYGYENNTPYVWSEPSDPLQLLVSGVSRKPSLLTLQGPVVTPGENLTLQCGSDVGYIRYTLYKEGADGLPQRPGRQPQAGLSQANFTLSPVSRSYGGQYRCYGAHNVSSEWSAPSDPLDILIAGQISDRPSLSVQPGPTVTSGEKVTLLCQSWDPMFTFLLTKEGAAHPPLRLRSMYGAHKYQAEFPMSPVTSAHAGTYRCYGSRSSNPYLLSHPSEPLELVVSGATETLNPAQKKSDSKTAPHLQDYTVENLIRMGVAGLVLLFLGILLFEAQHSQRSPPRCSQEANSRKDNAPFRVVEPWEQI	28.3 ± 0.36	29 ± 2.8	4.68 ± 0.17	5.06 ± 0.98	–
MTLLLLPLLLASLLASCSCNKANKHKPWIEAEYQGIVMENDNTVLLNPPLFALDKDAPLRYAGEICGFRLHGSGVPFEAVILDKATGEGLIRAKEPVDCEAQKEHTFTIQAYDCGEGPDGANTKKSHKATVHVRVNDVNEFAPVFVERLYRAAVTEGKLYDRILRVEAIDGDCSPQYSQICYYEILTPNTPFLIDNDGNIENTEKLQYSGERLYKFTVTAYDCGKKRAADDAEVEIQVKPTCKPSWQGWNKRIEYAPGAGSLALFPGIRLETCDEPLWNIQATIELQTSHVAKGCDRDNYSERALRKLCGAATGEVDLLPMPGPNANWTAGLSVHYSQDSSLIYWFNGTQAVQVPLGGPSGLGSGPQDSLSDHFTLSFWMKHGVTPNKGKKEEETIVCNTVQNEDGFSHYSLTVHGCRIAFLYWPLLESARPVKFLWKLEQVCDDEWHHYALNLEFPTVTLYTDGISFDPALIHDNGLIHPPRREPALMIGACWTEEKNKEKEKGDNSTDTTQGDPLSIHHYFHGYLAGFSVRSGRLESREVIECLYACREGLDYRDFESLGKGMKVHVNPSQSLLTLEGDDVETFNHALQHVAYMNTLRFATPGVRPLRLTTAVKCFSEESCVSIPEVEGYVVVLQPDAPQILLSGTAHFARPAVDFEGTNGVPLFPDLQITCSISHQVEAKKDESWQGTVTDTRMSDEIVHNLDGCEISLVGDDLDPERESLLLDTTSLQQRGLELTNTSAYLTIAGVESITVYEEILRQARYRLRHGAALYTRKFRLSCSEMNGRYSSNEFIVEVNVLHSMNRVAHPSHVLSSQQFLHRGHQPPPEMAGHSLASSHRNSMIPSAATLIIVVCVGFLVLMVVLGLVRIHSLHRRVSGAGGPPGASSDPKDPDLFWDDSALTIIVNPMESYQNRQSCVTGAVGGQQEDEDSSDSEVADSPSSDERRIIETPPHRY [Q9BQT9]	25.2 ± 1.4	26.1 ± 0.34	4.44 ± 0.21	5.534 ± 0.019	–
MWTSGRMSNAKNWLGLGMSLYFWGLMDLTTTVLSDTPTPQGELEALLSDKPQSHQRTKRSWVWNQFFVLEEYTGTDPLYVGKLHSDMDRGDGSIKYILSGEGAGIVFTIDDTTGDIHAIQRLDREERAQYTLRAQALDRRTGRPMEPESEFIIKIQDINDNEPKFLDGPYVATVPEMSPVGTSVIQVTATDADDPTYGNSARVVYSILQGQPYFSVDSKTGVIRTALMNMDREAKEYYEVIIQAKDMGGQLGGLAGTTTVNITLSDVNDNPPRFPQKHYQMSVLESAPISSTVGRVFAKDLDEGINAEMKYTIVDGDGADAFDISTDPNFQVGIITVKKPLSFESKKSYTLKVEGANPHLEMRFLNLGPFQDTTTVHISVEDVDEPPVFEPGFYFVEVPEDVAIGTTIQIISAKDPDVTNNSIRYSIDRSSDPGRFFYVDITTGALMTARPLDREEFSWHNITVLAMEMNNPSQVGSVPVTIKVLDVNDNAPEFPRFYEAFVCENAKAGQLIQTVSAVDQDDPRNGQHFYYSLAPEAANNPNFTIRDNQDNTARILTRRSGFRQQEQSVFHLPILIADSGQPVLSSTGTLTIQVCSCDDDGHVMSCSPEAYMLPVSLSRGALIAILACIFVLLVLVLLILSMRRHRKQPYIIDDEENIHENIVRYDDEGGGEEDTEAFDIAAMWNPREAQAGAAPKTRQDMLPEIESLSRYVPQTCAVNSTVHSYVLAKLYEADMDLWAPPFDSLQTYMFEGDGSVAGSLSSLQSATSDSEQSFDFLTDWGPRFRKLAELYGASEGPAPLW [Q9HBT6]	28 ± 0.47	36 ± 0.13	3.9 ± 0.76	50.2 ± 7	–
MAPAGCCCCCCFWGGAVAAAGAARRVLLLLLLGVLSAGLRPGALATEHYSPLSLLKQELQHRQQQEAPAGGGGCSPQSGDWGDQYSAECGESSFLNFHDSDCEPKGSSPCDSLLSLNTEKILSQAKSIAEQKRFPFATDNDSTNEELAIAYVLIGSGLYDEAIRHFSTMLQEEPDLVSAIYGRGIAYGKKGLHDIKNAELALFELSRVITLEPDRPEVFEQRAEILSPLGRINEAVNDLTKAIQLQPSARLYRHRGTLYFISEDYATAHEDFQQSLELNKNQPIAMLYKGLTFFHRGLLKEAIESFKEALKQKVDFIDAYKSLGQAYRELGNFEAATESFQKALLLNQNHVQTLQLRGMMLYHHGSLQEALKNFKRCLQLEPYNEVCQYMKGLSHVAMGQFYEGIKAQTKVMLNDPLPGQKASPEYLKVKYLREYSRYLHAHLDTPLTEYNIDVDLPGSFKDHWAKNLPFLIEDYEEQPGLQPHIKDVLHQNFESYKPEVQELICVADRLGSLMQYETPGFLPNKRIHRAMGLAALEVMQAVQRTWTNSKVRMNGKTRLMQWRDMFDIAVKWRRIADPDQPVLWLDQMPARSLSRGFNNHINLIRGQVINMRYLEYFEKILHFIKDRILVYHGANNPKGLLEVREALEKVHKVEDLLPIMKQFNTKTKDGFTVNTKVPSLKDQGKEYDGFTITITGDKVGNILFSVETQTTEERTQLYHAEIDALYKDLTAKGKVLILSSEFGEADAVCNLILSLVYYFYNLMPLSRGSSVIAYSVIVGALMASGKEVAGKIPKGKLVDFEAMTAPGSEAFSKVAKSWMNLKSISPSYKTLPSVSETFPTLRSMIEVLNTDSSPRCLKKL [Q8NBP0]	–	–	–	–	percentage of EdU-negative (MCF7; protein concentration 0.012 µM): 25.9 ± 1.1%; percentage of EdU-negative (MCF7; protein concentration 0.12 µM): 27.7 ± 0.85%; percentage of EdU-negative (hTERT-HMEC; protein concentration 0.012 µM): 5.436 ± 0.048%; percentage of EdU-negative (hTERT-HMEC; protein concentration 0.12 µM): 11 ± 2.8%
MVLWESPRQCSSWTLCEGFCWLLLLPVMLLIVARPVKLAAFPTSLSDCQTPTGWNCSGYDDRENDLFLCDTNTCKFDGECLRIGDTVTCVCQFKCNNDYVPVCGSNGESYQNECYLRQAACKQQSEILVVSEGSCATDAGSGSGDGVHEGSGETSQKETSTCDICQFGAECDEDAEDVWCVCNIDCSQTNFNPLCASDGKSYDNACQIKEASCQKQEKIEVMSLGRCQDNTTTTTKSEDGHYARTDYAENANKLEESAREHHIPCPEHYNGFCMHGKCEHSINMQEPSCRCDAGYTGQHCEKKDYSVLYVVPGPVRFQYVLIAAVIGTIQIAVICVVVLCITRKCPRSNRIHRQKQNTGHYSSDNTTRASTRLI [Q9UIK5]	–	–	–	–	percentage of EdU-negative (MCF7; [2]): 23.6 ± 4.7%; percentage of EdU-negative (MCF7; [3]): 28.2 ± 2%; percentage of EdU-negative (hTERT-HMEC; [2]): 5.34 ± 0.33%; percentage of EdU-negative (hTERT-HMEC; [3]): 11.1 ± 2.2%
MEKKWKYCAVYYIIQIHFVKGVWEKTVNTEENVYATLGSDVNLTCQTQTVGFFVQMQWSKVTNKIDLIAVYHPQYGFYCAYGRPCESLVTFTETPENGSKWTLHLRNMSCSVSGRYECMLVLYPEGIQTKIYNLLIQTHVTADEWNSNHTIEIEINQTLEIPCFQNSSSKISSEFTYAWSVENSSTDSWVLLSKGIKEDNGTQETLISQNHLISNSTLLKDRVKLGTDYRLHLSPVQIFDDGRKFSCHIRVGPNKILRSSTTVKVFAKPEIPVIVENNSTDVLVERRFTCLLKNVFPKANITWFIDGSFLHDEKEGIYITNEERKGKDGFLELKSVLTRVHSNKPAQSDNLTIWCMALSPVPGNKVWNISSEKITFLLGSEISSTDPPLSVTESTLDTQPSPASSVSPARYPATSSVTLVDVSALRPNTTPQPSNSSMTTRGFNYPWTSSGTDTKKSVSRIPSETYSSSPSGAGSTLHDNVFTSTARAFSEVPTTANGSTKTNHVHITGIVVNKPKDGMSWPVIVAALLFCCMILFGLGVRKWCQYQKEIMERPPPFKPPPPPIKYTCIQEPNESDLPYHEMETL	–	–	–	–	percentage of EdU-negative (MCF7; [4]): 25.5 ± 0.86%; percentage of EdU-negative (MCF7; [5]): 29.5 ± 0.78%; percentage of EdU-negative (hTERT-HMEC; [4]): 4.86 ± 1%; percentage of EdU-negative (hTERT-HMEC; [5]): 12.1 ± 1.3%
MPKGRQKVPHLDAPLGLPTCLWLELAGLFLLVPWVMGLAGTGGPDGQGTGGPSWAVHLESLEGDGEEETLEQQADALAQAAGLVNAGRIGELQGHYLFVQPAGHRPALEVEAIRQQVEAVLAGHEAVRWHSEQRLLRRAKRSVHFNDPKYPQQWHLNNRRSPGRDINVTGVWERNVTGRGVTVVVVDDGVEHTIQDIAPNYSPEGSYDLNSNDPDPMPHPDVENGNHHGTRCAGEIAAVPNNSFCAVGVAYGSRIAGIRVLDGPLTDSMEAVAFNKHYQINDIYSCSWGPDDDGKTVDGPHQLGKAALQHGVIAGRQGFGSIFVVASGNGGQHNDNCNYDGYANSIYTVTIGAVDEEGRMPFYAEECASMLAVTFSGGDKMLRSIVTTDWDLQKGTGCTEGHTGTSAAAPLAAGMIALMLQVRPCLTWRDVQHIIVFTATRYEDRRAEWVTNEAGFSHSHQHGFGLLNAWRLVNAAKIWTSVPYLASYVSPVLKENKAIPQSPRSLEVLWNVSRMDLEMSGLKTLEHVAVTVSITHPRRGSLELKLFCPSGMMSLIGAPRSMDSDPNGFNDWTFSTVRCWGERARGTYRLVIRDVGDESFQVGILRQWQLTLYGSVWSAVDIRDRQRLLESAMSGKYLHDDFALPCPPGLKIPEEDGYTITPNTLKTLVLVGCFTVFWTVYYMLEVYLSQRNVASNQVCRSGPCHWPHRSRKAKEEGTELESVPLCSSKDPDEVETESRGPPTTSDLLAPDLLEQGDWSLSQNKSALDCPHQHLDVPHGKEEQIC	25.2 ± 2.4	25.9 ± 0.42	4.85 ± 0.1	5.83 ± 0.0087	–
